Laboratory results reported in US20240165140A1, “MEDICATION FOR INHIBITING DNA-PKCS” (TSINGHUA UNIVERSITY, priority 2017, published 2024).

Experiments:
[1] = tested on: γH2AX; assay: Immunoblotting of γH2AX level (DSBs damage repair); type: cell-based; details: H1299 and A549 cells; Endostatin 10 μg/ml pretreatment 1 h, Etoposide 10 μM 1 hour, then fresh medium
Excerpt: In this example, the level of γH2AX was used to reflect the degree of DSBs damage. Tumor cells (including H1299 and A549 cells) were divided into eight treatment groups.

[2] = tested on: DNA-PKcs signaling pathway; assay: Immunoblotting of DNA-PKcs signaling pathway activation induced by chemotherapeutic agent; type: cell-based; details: H1299 and A549 cells; single agent 1 h (Etoposide 10 μM, Endostatin 10 μg/ml, NU7026 10 μM); compared with control group
Excerpt: Tumor cells (including non-small cell lung cancer H1299 and A549 cells) were divided into six treatment groups.
Tumor cells (including H1299 and A549 cells) were divided into six treatment groups.

[3] = tested on: H1299 and A549 cells; assay: Annexin V-FITC/PI apoptosis by flow cytometry with DNA-PKcs siRNA knockdown; type: cell-based; details: Endostatin 10 μg/ml added 1 h before Etoposide (10 μM for H1299, 1 μM for A549, 16 h)
Method: In this example, tumor cells (including H1299 and A549 cells) were divided into eight treatment groups. In the first four groups, cells were transfected with control siRNA, and in the last four groups, cells were transfected with siRNA that specifically knocked down DNA-PKcs. The siRNA sequence of DNA-PKcs is: forward 5′-[…]-3′ (SEQ ID NO: 5), reverse 5′-[…]-3′ (SEQ ID NO: 6). The siRNA transfection method was performed according to the instructions of the transfection reagent Lipofectamine 2000. Then, in the eight groups, the cells were treated with drugs. […] Cells were collected and operations were performed according to the instructions of Annexin V-FITC/PI Apoptosis Detection Kit. Apoptosis was detected by flow cytometry. A549 cells were P53 wild-type cells, and H1299 cells were P53-deficient cells.

[4] = tested on: A549 tumor-bearing mice (normal P53 function); assay: Survival of A549 tumor-bearing mice; type: in vivo; details: A549, normal P53 function (FIG. 13B); compared with control group; administration as in Example 12, stopped after 25 days
Method: (§1) Tumor-bearing nude mice were randomly divided into four groups with 6 to 8 animals for each group, and different drug treatments were performed. […] Tumor volume was measured every other day. 2 to 4 weeks after administration, the mice were sacrificed and the tumor tissue was removed for further use.
(§2) H1299 and A549 cells were cultured in a vigorous and proliferative state, and tumor collection, grouping, and administration methods were the same as in Example 12. The administration was stopped after 25 days, and the survival of the mice was recorded daily, and the survival curve of the mice was plotted.

[5] = tested on: tumor cells with normal P53 function (H1299-P53, A549-NC); assay: Cell colony formation, tumor cells with normal P53 function; type: cell-based; details: Endostatin 10 μg/ml added 1 h before Etoposide 1 μM, 16 h
Method: (§3) After the treatment, the cells were digested with trypsin, counted, and re-plated in a six-well plate with 1000 cells per well. The cells were cultured in a normal medium for 14 days to form cell colonies.

[6] = tested on: H1299 mouse tumor model; assay: Survival of H1299 tumor-bearing mice; type: in vivo; details: administration as in Example 12, stopped after 25 days
Method: as §1, §2

[7] = tested on: A549-NC tumor; assay: Subcutaneous tumor growth in nude mice, A549-NC; type: in vivo
Method: as §1

[8] = tested on: mRNA levels of BAX, NOXA, PUMA, and P21; assay: Real-time PCR of pro-apoptotic molecules, P53-deficient tumor cells; type: cell-based; details: H1299-NC, A549-shP53; Endostatin 10 μg/ml added 1 h before Etoposide 1 μM, 16 h
Method: (§4) After the cells were treated as described above, the total RNA of the cells was extracted, and the relative changes in mRNA levels of BAX, NOXA, PUMA, and P21 in the cells were detected by real-time PCR.

[9] = tested on: A375 cells; assay: CCK8 cell activity, melanoma A375; type: cell-based; details: A375 (P53 wild type); operation process as in Example 5
Method: First, a lentivirus kit (purchased from Shanghai Genepharma) was used to construct a P53 stably overexpressing H1299 cell line (H1299-P53) and a P53 stably knockdown A549 cell line […]. The P53 sequence targeted by the shRNA used to knock down P53 in A549 cells was 5′-[…]-3′ (SEQ ID NO: 4). Virus transfection and the construction of stable cell lines were performed according to the kit instructions. […] After treatment for 12 hours, the drug-containing medium was replaced with a normal medium and the cells were further cultured for 72 hours. Cell activity was measured according to the instructions of the CCK8 kit (Dojindo, Tokyo, Japan).
This example used two cell lines of another tumor type (melanoma), the MDA-MB-435S (P53 mutant) and A375 (P53 wild type) cell lines, to verify the regulatory function of Endostatin on the chemotherapeutic sensitivity of other types of tumor cells with different P53 status. Operation process was the same as in Example 5.

[10] = tested on: mRNA levels of BAX, NOXA, PUMA, and P21; assay: Real-time PCR of pro-apoptotic molecules, tumor cells with normal P53 function; type: cell-based; details: H1299-P53, A549-NC; Endostatin 10 μg/ml added 1 h before Etoposide 1 μM, 16 h
Method: as §4

[11] = tested on: P53-deficient tumor cells (H1299-NC, A549-shP53); assay: Cell colony formation, P53-deficient tumor cells; type: cell-based; details: Endostatin 10 μg/ml added 1 h before Etoposide 1 μM, 16 h; colonies after 14 days
Method: as §3

[12] = tested on: H1299-P53 tumor; assay: Subcutaneous tumor growth in nude mice, H1299-P53; type: in vivo
Method: as §1

B1: Endostatin: recombinant natural human endostatin expressed by E. coli, from Protgen, SEQ ID NO: 2 (protein)
chain: MHSHRDFQPVLHLVALNSPLSGGMRGIRGADFQCFQQARAVGLAGTFRAFLSSRLQDLYSIVRRADRAAVPIVNLKDELLFPSWEALFSGSEGPLKPGARIFSFDGKDVLRHPTWPQKSVWHGSDPNGRRLTESYCETWRTEAPSATGQASSLLGGRLLGQSAASCHHAYIVLCIENSFMTASK
modifications: The amino acid sequence of natural human endostatin
Reduction of γH2AX level (repair of DSBs damage) after Etoposide [1]: delayed the reduction of γH2AX level
Level of the DNA-PKcs signaling pathway (p-DNA-PKcs (S2056), p-AKT (S473), p-P53 (S15)) [2]: did not affect the level of the DNA-PKcs signaling pathway
Role of Endostatin in promoting apoptosis induced by Etoposide after knocking down DNA-PKcs ([3]; DNA-PKcs siRNA): weakened
Etoposide-induced apoptosis ([3]; control siRNA): would further promote Etoposide-induced apoptosis
Survival time of mice [4]: could prolong the survival time of the mice to some extent
Effect on inhibition of colony-forming ability by Etoposide [5]: did not significantly enhance theinhibitory effect of Etoposide
median survival time longer than that of the control group [6]: 24.2%
tumor suppression rate ([7]; Day 27, compared with control group, Endostatin 20 mg/kg i.p. once a day, Etoposide 2 mg/kg i.p. once every two days): 40.9%
Effect on the inhibitory effect of Etoposide on tumor growth ([7]; Endostatin 20 mg/kg i.p. once a day and Etoposide 2 mg/kg i.p. once every two days): could not enhance the inhibitory effect of Etoposide on tumor growth
Effect on up-regulation of pro-apoptotic molecules by Etoposide (mRNA) [8]: could enhance Etoposide to up-regulate pro-apoptotic molecules
Effect on the inhibitory effect of Etoposide on cell activity [9]: did not significantly enhance the inhibitory effect of Etoposide
Effect on the pro-apoptotic effect of Etoposide (mRNA of pro-apoptotic molecules) [10]: did not significantly enhance the pro-apoptotic effect of Etoposide
Effect on inhibition of tumor cell colony-forming ability by Etoposide [11]: could enhance the inhibitory effect of Etoposide on tumor cell colony-forming ability
tumor suppression rate ([12]; H1299-P53, Day 19, compared with control group, Endostatin 20 mg/kg i.p. once a day, Etoposide 2 mg/kg i.p. once every two days): 33.8%
Effect on the inhibitory effect of Etoposide on tumor growth ([12]; H1299-P53, Endostatin 20 mg/kg i.p. once a day and Etoposide 2 mg/kg i.p. once every two days): could not enhance the inhibitory effect of Etoposide on tumor growth
